Tests used:
3BNC60 mature = assay: SPR; conditions: antibody dilution series, colour key 0.98-1000 nM; KD1 fitted by bivalent modeling
[1] = target: VRC01 germline (gl-VRC01); assay: SPR; conditions: antibody dilution series, colour key 0.98-1000 nM; KD1 fitted by bivalent modeling
[2] = target: gl-3BNC60 IgG (inferred germline precursor of 3BNC60); assay: SPR; conditions: antibody dilution series, colour key 0.98-1000 nM; KD1 fitted by bivalent modeling; parent: ND
[3] = target: PGV19 germline (gl-PGV19); assay: SPR; conditions: antibody dilution series, colour key 0.98-1000 nM; KD1 fitted by bivalent modeling
[4] = target: 12A12 germline (gl-12A12); assay: SPR; conditions: antibody dilution series, colour key 0.98-1000 nM; KD1 fitted by bivalent modeling; parent: ND
[5] = target: BG505 SOSIP.v4.1 GT1.1 trimer (BG505 SOSIP germline trimer 1.1) (HIV-1 (isolate BG505)) (UniProt Q2N0S6); assay: SPR; Biacore 3000; His-tagged GT1 and GT1.1 trimers captured in parallel flow cells, IgG injected from 1 μM in two- or four-fold dilutions; association 300 s, dissociation 600 s, 50 uL/min; bivalent model

Sequence of gl-3BNC60 IgG (inferred germline precursor of 3BNC60) (antibody) (VH): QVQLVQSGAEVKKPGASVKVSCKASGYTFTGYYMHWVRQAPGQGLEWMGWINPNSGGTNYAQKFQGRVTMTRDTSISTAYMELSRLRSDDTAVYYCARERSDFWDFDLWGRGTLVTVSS
Sequence of gl-3BNC60 IgG (inferred germline precursor of 3BNC60) (antibody) (VL): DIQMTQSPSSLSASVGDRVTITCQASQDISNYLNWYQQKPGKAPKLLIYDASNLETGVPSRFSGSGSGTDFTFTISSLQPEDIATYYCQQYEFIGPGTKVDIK

Row | Substance | Kd (3BNC60 mature) | Kd [1] | Kd [2] | Kd [3] | Kd [4] | KD1 (bivalent model) [5]
1 | BG505 SOSIP.v4.1-GT1 trimer (from UniProt Q2N0S6) E275K | < 0.1 nM | 360 nM | 780 nM | 24 nM | 200 nM | –
2 | gl-3BNC60 IgG (inferred germline precursor of 3BNC60) (antibody) | – | – | – | – | – | 780 nM

Source: paper PMC11783328
